In PMC9926122:

Target: T1, recombinant EB1 (HS-AFM and microtubule experiments) (human), Q15691
T1 chain: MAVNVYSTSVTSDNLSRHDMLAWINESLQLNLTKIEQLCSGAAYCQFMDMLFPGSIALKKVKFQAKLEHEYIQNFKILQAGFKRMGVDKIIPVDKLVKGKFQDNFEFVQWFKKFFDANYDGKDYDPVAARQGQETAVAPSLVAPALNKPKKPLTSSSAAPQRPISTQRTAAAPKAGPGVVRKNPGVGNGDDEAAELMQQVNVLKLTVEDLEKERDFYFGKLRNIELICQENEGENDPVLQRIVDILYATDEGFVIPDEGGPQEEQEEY
Assay: high-speed atomic force microscopy (HS-AFM); proteins (10-30 nM; 10 nM in the frames shown) in BRB80 buffer (80 mM Pipes, 1 mM EGTA, 1 mM MgCl2, pH 6.9) on mica, tapping mode, 150 ms per frame; EB1 alone, Ska1 alone and their mixture
Settings: remark: other sources report otherwise

B1: recombinant EB1 (HS-AFM and microtubule experiments), Q15691 1-268 (natural protein)
chain: MAVNVYSTSVTSDNLSRHDMLAWINESLQLNLTKIEQLCSGAAYCQFMDMLFPGSIALKKVKFQAKLEHEYIQNFKILQAGFKRMGVDKIIPVDKLVKGKFQDNFEFVQWFKKFFDANYDGKDYDPVAARQGQETAVAPSLVAPALNKPKKPLTSSSAAPQRPISTQRTAAAPKAGPGVVRKNPGVGNGDDEAAELMQQVNVLKLTVEDLEKERDFYFGKLRNIELICQENEGENDPVLQRIVDILYATDEGFVIPDEGGPQEEQEEY
**Q.** With B1 as the binder, how does the stoichiometry N read?
**A.** 2
